Changes are numbered by the printed parent chain.
B1: Antibody 5 (antibody, V domains shown)
VH: QVQLVESGGGLVKPGGSLRLSCAASGFTFSDYYMTWIRQAPGKGLEWVSYISISGITRYYADSVKGRFTISRDNAKNSLYLQMNSLRAEDTAVYYCARDQTGYFDYWGQGTLVTVSS
VL: DIVMTQSPATLSVSPGEKTTLSCRASQSFSSNLAWYQQKPGQAPRLLIYGASTRATGIPARFSGSGSGTEFTLTISSLQSEDFAVYYCQQYINWPHTFGQGTKVEIK
notes: Fully human antibody; IgG4; also called Clone 5; Antibody Clone 5
B2: Antibody 1 (antibody, V domains shown)
VH: QVQLVESGGGLVKPGGSLRLSCAASGFTFSDYYMSWIRQAPGKGLEWVSYISSSGSIKKYADSVKGRFTISRDNAKNSLYLQMNSLRGEDTAVYYCARTNWHFDYWGQGTLVTVSS
VL: EIVLTQSPGTLSLSPGERATLSCRASQSVSSSYLAWYQQKPGQAPRLLIFGASTRATGIPDRFSGSGSGTDFTLTISRLEPEDVAVYYCQQYYSTPFTFGPGTKVDIK
notes: Fully human antibody expressed in CHO; also called Clone 1; Antibody Clone 1
B3: Antibody 3 (antibody, V domains shown)
VH: QVQLVQSGAEVKKPGASVKVSCKASGYTFTSYGISWVRQAPGQGLEWMGWISAYNGNTNYAQKLQGRVTMTTDTSTSTAYMELRSLRSDDTAVYYCARSYSGSHWWFDPWGQGTLVTVSS
VL: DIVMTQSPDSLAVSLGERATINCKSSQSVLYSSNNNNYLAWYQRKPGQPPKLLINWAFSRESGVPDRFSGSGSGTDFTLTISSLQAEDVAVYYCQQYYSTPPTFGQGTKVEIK
notes: Fully human antibody; IgG4; also called Clone 3; Antibody Clone 3
B4: Antibody 4 (antibody, V domains shown)
VH: B3 VH with H104Y
VL: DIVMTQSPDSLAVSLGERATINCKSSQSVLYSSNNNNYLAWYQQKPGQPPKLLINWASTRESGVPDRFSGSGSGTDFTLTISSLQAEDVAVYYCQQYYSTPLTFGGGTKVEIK
notes: Fully human antibody; IgG4; also called Clone 4; Antibody Clone 4

Target: human LILRB1 (coated on plates in the competition ELISA) (human, UniProt Q8NHL6 24-461, limits assumed)
Sequence (Q8NHL6 24-461 limits assumed): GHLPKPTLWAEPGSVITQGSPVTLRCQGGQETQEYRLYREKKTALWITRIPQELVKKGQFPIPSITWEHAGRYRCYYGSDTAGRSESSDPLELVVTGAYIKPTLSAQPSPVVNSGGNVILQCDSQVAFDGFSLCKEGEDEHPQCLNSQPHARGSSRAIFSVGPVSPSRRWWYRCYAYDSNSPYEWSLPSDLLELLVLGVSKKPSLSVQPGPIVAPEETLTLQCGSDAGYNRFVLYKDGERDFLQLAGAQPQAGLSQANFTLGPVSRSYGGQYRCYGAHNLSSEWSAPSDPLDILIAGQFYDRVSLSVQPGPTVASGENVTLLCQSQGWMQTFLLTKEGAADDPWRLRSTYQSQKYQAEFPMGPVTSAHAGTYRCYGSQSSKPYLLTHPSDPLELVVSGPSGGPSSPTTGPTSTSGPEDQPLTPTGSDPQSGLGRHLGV
Test: competition ELISA on coated human LILRB1; competitor 5 nM biotinylated Antibody 2
Protocol: FIG. 33. Cross-competition between Antibody (Clone) 2 and other Abs in ELISA. Plates were coated with human LILRB1 and, after blocking, incubated with 5 nM of biotinylated Clone 2 and different concentrations of unlabelled Clones 1-5 and the Reference 1-3 Abs. Bound biotinylated Clone 2 was detected using HRP-conjugated streptavidin and a chromogenic substrate. Unlabelled Clone 2 competed its biotinylated counterpart with low nM IC₅₀, while Clones 1, 3, 4 and 5 each yielded IC₅₀ of about 10 nM. None of the Reference Abs, nor the isotype control, could compete with Antibody 2 up to 250 nM concentrations.
Antibodies 1 to 5 were all found to bind within the D3-D4 fragment of human LILRB1. To investigate if Antibody 2 binds to an epitope similar to or different from the epitope of the other Antibodies (and Reference Antibodies) a competitive ELISA was performed. Plates were coated with human LILRB1 and after blocking incubated with 5 nM of biotinylated Antibody 2 and different concentrations of each unlabelled Antibody 1-5 and the Reference Antibodies 1 to 3. Bound biotinylated Antibody 2 was detected using HRP-conjugated streptavidin and a chromogenic substrate. Unlabelled Antibody 2 competed its biotinylated counterpart with low nM IC₅₀, while Antibodies 1, 3, 4 and 5 yielded IC₅₀ about 10 nM. None of the Reference Abs nor the isotype control could compete with Antibody 2 up to 250 nM concentrations.

| IC50 | Binder |
| --- | --- |
| ~10 nM | B1 |
| ~10 nM | B2 |
| ~10 nM | B3 |
| ~10 nM | B4 |

Target: T1, Cynomolgus monkey (Macaca fascicularis) LILRB ectodomain fused to mIgG2a (cynomolgus monkey (Macaca fascicularis))
T1 construct: also called cynomolgus LILRB protein
T1 sequence (chain, as listed by the source limits assumed): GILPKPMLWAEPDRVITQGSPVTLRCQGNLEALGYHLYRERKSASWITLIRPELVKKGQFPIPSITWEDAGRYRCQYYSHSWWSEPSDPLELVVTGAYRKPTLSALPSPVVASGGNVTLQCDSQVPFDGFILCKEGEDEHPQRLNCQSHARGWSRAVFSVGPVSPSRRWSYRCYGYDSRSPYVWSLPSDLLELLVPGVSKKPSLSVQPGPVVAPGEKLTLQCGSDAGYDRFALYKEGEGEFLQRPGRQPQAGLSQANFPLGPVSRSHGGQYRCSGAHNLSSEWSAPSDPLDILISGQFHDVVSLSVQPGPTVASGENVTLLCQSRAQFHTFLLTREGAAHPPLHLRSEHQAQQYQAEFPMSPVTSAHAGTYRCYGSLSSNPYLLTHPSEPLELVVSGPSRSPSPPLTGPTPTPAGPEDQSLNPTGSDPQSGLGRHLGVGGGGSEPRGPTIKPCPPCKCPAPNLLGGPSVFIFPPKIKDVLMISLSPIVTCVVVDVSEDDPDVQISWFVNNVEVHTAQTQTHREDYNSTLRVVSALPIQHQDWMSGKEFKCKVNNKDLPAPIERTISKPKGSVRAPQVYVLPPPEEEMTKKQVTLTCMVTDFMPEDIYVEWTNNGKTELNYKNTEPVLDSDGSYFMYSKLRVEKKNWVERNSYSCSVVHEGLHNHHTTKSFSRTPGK
Test: summary table (ELISA); Rhesus & Cyno LILRB1/2 binding; Y = Yes

| binding result | Binder |
| --- | --- |
| binds | B1 |
| binds | B2 |
| binds | B3 |
| binds | B4 |

Target: T2, Human LILRB1 (D1-D2) fused to mouse IgG2a Fc (human)
T2 construct: also called truncated (D1-D2) version of the LILRB1 ecto-domain
T2 sequence (chain, as listed by the source limits assumed): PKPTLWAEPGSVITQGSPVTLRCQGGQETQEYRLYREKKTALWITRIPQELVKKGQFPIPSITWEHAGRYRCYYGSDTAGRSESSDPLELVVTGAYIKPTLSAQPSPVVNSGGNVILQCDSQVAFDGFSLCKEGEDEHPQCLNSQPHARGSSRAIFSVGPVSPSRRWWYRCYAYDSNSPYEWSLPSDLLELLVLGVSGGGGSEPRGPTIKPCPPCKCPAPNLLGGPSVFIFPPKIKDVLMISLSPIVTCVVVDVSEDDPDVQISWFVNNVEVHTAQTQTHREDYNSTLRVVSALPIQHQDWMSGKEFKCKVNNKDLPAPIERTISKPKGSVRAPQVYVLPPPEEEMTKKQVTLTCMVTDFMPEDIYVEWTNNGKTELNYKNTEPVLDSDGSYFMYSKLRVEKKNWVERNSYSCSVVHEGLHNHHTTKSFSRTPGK
Test: summary table (ELISA); N = No

| binding result | Binder |
| --- | --- |
| no binding | B1 |
| no binding | B2 |
| no binding | B3 |
| no binding | B4 |

— patent publication US20250197491A1 (MACOMICS, published 2025)
